The data set deals with survivin;borealin 10-109;INCENP 1-80 (CPI80) (human;human;human) (UniProt O15392+Q53HL2+Q9NQS7). Nature of the data set: EMSA. The conditions noted are these: shift between 2 and 3 uM protein; 100 mM NaCl, 20 mM Tris-HCl pH 7.4, 1 mM DTT, 2 h on ice; MST 0.04 uM duplex, 0.1-200 uM protein; EMSA 0.15 pmol plasmid in 20 ul, 0.8% agarose.

The values that follow come from publication PMC7337490.

Chain of survivin;borealin 10-109;INCENP 1-80 (CPI80) (human;human;human) (O15392 whole entry, chain 1 of 3): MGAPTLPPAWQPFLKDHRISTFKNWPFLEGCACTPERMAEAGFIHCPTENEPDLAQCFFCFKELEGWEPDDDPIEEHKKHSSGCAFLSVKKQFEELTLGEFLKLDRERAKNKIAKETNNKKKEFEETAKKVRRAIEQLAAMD
Chain of survivin;borealin 10-109;INCENP 1-80 (CPI80) (human;human;human) (Q53HL2 10-109, chain 2 of 3): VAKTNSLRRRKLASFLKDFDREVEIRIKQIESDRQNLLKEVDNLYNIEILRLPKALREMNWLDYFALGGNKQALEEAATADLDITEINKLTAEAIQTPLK
Chain of survivin;borealin 10-109;INCENP 1-80 (CPI80) (human;human;human) (Q9NQS7 1-80, chain 3 of 3): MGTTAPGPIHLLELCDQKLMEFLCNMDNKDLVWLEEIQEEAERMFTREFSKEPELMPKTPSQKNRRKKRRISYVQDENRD

For the substance BamHI-linearized pBluescript (2.9 kb), the K half is 3000 nM.
